Results reported in PMC6706441, “B1 oligomerization regulates PML nuclear body biogenesis and leukemogenesis” (Nature Communications, 2019).

B1: full-length PML isoform IV, wild type (mammalian two-hybrid fusions) [human (by the printed UniProt code P29590-5)] / full-length PML isoform IV, wild type (mammalian two-hybrid fusions) [human (by the printed UniProt … (parent)
chain 1: MEPAPARSPRPQQDPARPQEPTMPPPETPSEGRQPSPSPSPTERAPASEEEFQFLRCQQCQAEAKCPKLLPCLHTLCSGCLEASGMQCPICQAPWPLGADTPALDNVFFESLQRRLSVYRQIVDAQAVCTRCKESADFWCFECEQLLCAKCFEAHQWFLKHEARPLAELRNQSVREFLDGTRKTNNIFCSNPNHRTPTLTSIYCRGCSKPLCCSCALLDSSHSELKCDISAEIQQRQEELDAMTQALQEQDSAFGAVHAQMHAAVGQLGRARAETEELIRERVRQVVAHVRAQERELLEAVDARYQRDYEEMASRLGRLDAVLQRIRTGSALVQRMKCYASDQEVLDMHGFLRQALCRLRQEEPQSLQAAVRTDGFDEFKVRLQDLSSCITQGKDAAVSKKASPEAASTPRDPIDVDLPEEAERVKAQVQALGLAEAQPMAVVQSVPGAHPVPVYAFSIKGPSYGEDVSNTTTAQKRKCSQTQCPRKVIKMESEEGKEARLARSSPEQPRPSTSKAVSPPHLDGPPSPRSPVIGSEVFLPNSNHVASGAGEAEERVVVISSSEDSDAENSSSRELDDSSSESSDLQLEGPSTLRVLDENLADPQAEDRPLVFFDLKIDNESGFSWGYPHPFLI
chain 2: B1 chain 1

Variants of: B1
Assay: mammalian two-hybrid assay
Settings: with full-length PML isoform IV, parent: 38, read off a plot, scale: fold change

| response | Variant |
| --- | --- |
| 21 | chain 1 I122P V123P |
| 3.2 | chain 1 W157E |
| 2.8 | chain 1 F158E |
